Test in all cases: cross-linking
In test [1] the target is T1, JNK1 β-1 isoform lacking 20 amino acids from the C-terminus (JNK1 ΔC20) (human, UniProt P45983-3 1-364).
The next test concerns the target ERK2 (human, UniProt P28482 1-360).
Test [2] deals with T1, JNK1 β-1 isoform lacking 20 amino acids …. This is another data set of the same source.

Like-named read-outs stand apart in the source and are kept apart here. Ends that are not written are not given here. * marks the point of attachment. diazirine‑based cleavable photocrosslinker = not defined here; Biotin = O=C1N[C@H]2[C@H](CS[C@H]2CCCCC(=O)*)N1

ERK2, sequence (P28482 whole entry, canonical isoform): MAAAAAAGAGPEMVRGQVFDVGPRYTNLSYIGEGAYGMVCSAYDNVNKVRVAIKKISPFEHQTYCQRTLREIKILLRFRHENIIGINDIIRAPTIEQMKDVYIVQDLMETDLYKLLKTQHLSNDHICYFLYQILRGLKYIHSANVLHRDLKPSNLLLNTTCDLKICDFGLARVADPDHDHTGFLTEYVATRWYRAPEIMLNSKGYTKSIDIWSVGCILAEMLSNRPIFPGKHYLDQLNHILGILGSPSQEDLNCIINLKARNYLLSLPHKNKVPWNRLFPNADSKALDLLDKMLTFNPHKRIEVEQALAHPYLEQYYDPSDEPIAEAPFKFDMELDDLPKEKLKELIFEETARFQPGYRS

Turning to Biotin-C(diazirine‑based cleavable photocrosslinker)GKRKALKLNFANW (reading uncertain) [MKK4 D-motif peptide I], the binding result (in test [1]; with ERK2) was “binds” in each case.
Turning to Biotin-C(diazirine‑based cleavable photocrosslinker)KRKALKLNFANW (reading uncertain) [MKK4 D-motif peptide II], the binding result (in test [1]; with ERK2) was “binds” in each case.
As to Biotin-C(diazirine‑based cleavable photocrosslinker)QGKRKALKLNFANW (reading uncertain) [MKK4 D-motif peptide wt (wild-type)], the binding result in test [2] is “binds”.
